Measured values published in the nanobody polyreactivity screen of Harvey et al. (2022).

Test: yeast display, Sf9 membrane polyspecificity reagent, FACS + sequencing; frameworks hold sequencing errors
Method in brief: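 A synthetic nanobody library was expressed on Saccharomyces cerevisiae BJ5465 by galactose induction for 36–48 hours. The library was stained for 1 hour at 4 °C with 10% biotinylated, detergent-solubilized Sf9 membrane reagent and enriched with streptavidin microbeads before FACS. Low and high (top ~1%) gates were set on anti-HA fluorescence for expression and streptavidin fluorescence for reagent binding, and each polyreactivity label reflects the gate of origin.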

Sequence	polyreactivity (PSR sort gate)
QVQLVESGGGLVQAGGSLRLSCASSGFIFSSYAMGWYRQAPGKERELVAAISLRSTTTYYADSVKGRFTISRDNAKNSVYLQMNSLKPEDTAVDYCAKGGSRDRYGYWGQGTQVTVSS	high polyreactivity
QVQLVESGGGLVQAGGSLRLSCAASGNTFVYYAMGWYRQAPGKERELVAGISRRSGSTYYADSVKGRFTISRDNAKNTVYLQMNSLKPEDTAVYYCAKGRTYLDADDYWGQGTQVTVSS	low polyreactivity
QVQLVESGGGLVQAGGSLRLSCAASGSIFQPYAMGWYRQAPGKERELVAAISIGDSTNYADSVKGRFTISRDNAKNTVYLQMNSLKPADTAVYYCNTTGEYYDYWGQATQVTVSS	low polyreactivity
QVHLVESGGGLVQAGGSLRLSCAASGRSFRRNARGWYRQAPGKERELVATISSGGTTKYADSVKGRFTISRDNAKYTVYLQMNNLKPEDTAVYYCNADLNRRTYGPDSYYWGQGNQVTVSS	high polyreactivity
QVQLVESGGGLVEAGGSLRLICAASGSIFYFYGMGWYRQAPGKEREVVAAITYSGGSTYYADSVKGRYTISRDNAKNTVDLQMNSLIPEDTAVYYCNADSVLELYWKMDYWGQGTQVTVSS	low polyreactivity
QVQLVESGGGLVQAGGSLRLRCAASGGTFYPYALGWYRQAPGKESELVAAISTSGGITYYADSVKARFTISRDNAKNTVYLQMNSLKPEDTAVYYCAAPVAYRGSRNFIYRYNYWGQGTQVTVSS	high polyreactivity
QVQLLESGGGLVQAGGSLRLSCAASGSIFVFYAMGWYRQAPGKERELVAAISSSGGSTYYADTVKGRITISRDNAKNTVYLQMNSLKPEDTAVYYCAVRRSTGSRSPPMYYWGQGTQVTVSS	high polyreactivity
QVQLVESGGRLVQAGGSLRLRCAASGRIIAYYAMGWYRQAPGKERELVAAISRSGGSTYYADSVKGRFTISRDTAQNYVYLQMNSLKPEDTAVYYCAASLIVPYATMNYWGQGTQVTVSS	high polyreactivity
QVQLVESGGGVVQAGGSLRLSCAASGSHFISNAMGWYRQAPGKERELVAAITSSGGSTYYADSVKGRFTISRDNAKNTVYLQMNSLKPEVTAVYYCAARPGRNYYYWGQGTQVTVSS	high polyreactivity
QVQLVESGGGLVQAGGSLRLSCAASGSIFYSYAMGWYRQAPGKERELVADITWYGGRTYYADSVKGRFTISRDNAKNTVYLQMNSLKPEDTAVYYCAADVYLYDYWGQGTQVTISS	high polyreactivity
QVQLVESGGGLVQAGGSLRISCAASGRIFTRNAMGWYTQAPGNETELVAAITSGGSTNYADSVKGRFTISRDNAKNTVYLQMNSLKPEDTAVYFCYAVYYPYRIWGRVRPSYGYWGQGTQVTVSS	high polyreactivity
QVQLVESGGGLVQAGGSLPLSCAASGRTFGENAMGWYRQAPGKERELVAAITSGARTYYADSVKGRFTISRDNAKNTVYLQMNSLKPEDTAVYYCAKAYRRFSGGAGKQGGYYWGQGTQVTVSS	high polyreactivity
QVQLVESGGGLVQAGGSLRLSCAASGSTVSNYAMGWYRQAPGKERELVASISNGGSTNDADSVKGRFTISRANAKNTGYLQMNSLKPEDTAVYYCNAESKAKYDYWGQGTQVTLSS	low polyreactivity
QVQLVESGGGLVQAGGSLSLSCAASGFIFSYYVMGWYRQAPGKERELVAAINESGGRTYYADSVKGRFTISRDNAKNTVYLQMNSLNPEDTAVYYCAASVLNKIQGYRDYYWGQGTQVTVSS	low polyreactivity
QVQLVESGGGLDQAGGSLRLSCAASGRIIRYYAKGWYRQAPGKEREFVATISSGGSTNYADSVKGRFTISRDNAKNNVYLQMNSLKQEHTSVYYCNRVYSRHVWGQGTQVTVSS	high polyreactivity
QVQLEESGGGLVQAGGSLRLSCAASGSILIYNAMGLYRQATGKERELVAGISRRGASTYYADSVKGRFTISRDYAKNTVYLQMNSLKPEDTAVYYCATRKLRTRGYDYGYWGQGTQVTVSS	low polyreactivity
QVQLVESGGGLVQAGGSLRLSCAASGRIFSVYAMGWYRQAPGKEREFVAAITKGGVGTYYADSVKGRFTISRDHAKNSVYLQMNSLKPEDTAVYYFAARHYYGADRYYSWGQGTQVTVSS	high polyreactivity
QVQIVESGGGLVQAGGSLRVSCAASGRTFRLYAMGWYRQAPGKERELVAAITRGGRTNYADSVKGRFTISRDNAKYTVYLHMNSLKPEDTAVYYCAARYVERHTDYYYWGQGSQVTVSS	low polyreactivity
QVQLVESGARLVQAGGSLRLSCDASGITFFAYAIGWYRQAQGKERELVAAISCNTGRTYYADSVKGRFTISRDNAKITVYLQMNSLKPEDTAVYYCAKRGVGVGYNYWGQGTQVTVSS	high polyreactivity
QVQIVESGGGLVQAGGSLRLSCDASGSIFNYNAMGWYRQAPGKEREFVAAINQGGTSTYYADSVKGRFTISRDNAKNTVYLQINSLKPEDTAVYYCAALITVYRGSYEYWGQGTQVTVSS	low polyreactivity
QVQHVESGGGLVQAGGSLRLTCAASARIFRYYPMGRYRPAPGKERELVAGITTGGGSTYYADSVKGRFTISRENAKNTVYLQMNSLKPEDTAVFYCAARYYTTYYWGQGTQVTVSS	high polyreactivity
QVQLEESGGGLVQAGGSLRLSCAASGRIFPYYTMGWYRQAPGKERELVAAISWSGGSTYYADSVKGRFTISRDNAKNTVYLQMNSLKPEDTAVYYCNVRKVYRYQYRFEYWGQGTQVTVSS	high polyreactivity

Sequence	polyreactivity (PSR sort gate)
QVQLVESGGGLVQAGGSLGLSCAASGFTFYYYAMGWYRQAPGKERELVAIRFRGGNTYYADSVKGRFTISRDNAENTVYLQMNSLKPEDTAVYYCNADDLGSTYVDYDYWGQGTQVTVSS	low polyreactivity
QVQLVESGGGLVQAGGSLRLSCAASGFIFYSYAMGWYRQAPGKEREFVASICGGTGSTYYADSVKGRFTISRDNAKNTVYLQMNSLIPEDTAVYYCNARIVHSFRYDYWGQGTQVTVSS	low polyreactivity
QVQLVESGGGLVQAGGSLRLSCAASGLIFYKYAMGWYRQAPGNERELVAAISRGDNTYYADSVKGRFTISRDNAKNTVYLQMNSLKPEDTALYYCAAYRWIYQSQYQGYWLDYWGQGTQVTVSS	high polyreactivity
QVQLGESGRGLVPAGGSLRLSCASSGSIFDRNARGWYRQAPGKERELVAAISSRGGSTYYADSVKGRFTISRDNAKNTVYLQMNSLKPEDTAVYYCNKVRTYGYDYWGQGTQVTVSS	high polyreactivity
QVQLVESGGGLVQAGGSLRLSCAASGFTFDLYAMGWYRQAPGKERELVAAISWSGGSTRYADSVKGRFTISRDNAKNTVYLQMNSLKPEDTAVYYCARQPRLYFKGKLYGYWGQGTQVTVSS	high polyreactivity
QVQLVESGGGLVQAGGSLRLSCAASGFTFYSNAMGWYRQAPGKERELVATIRYRGGSTYADSVKGRFTISRDNAKNTVYLQMNSLKPEDTAVYYCAARKYRSFRQRTGDYWGQGTQVTVSS	high polyreactivity
QVQLVESGGGLVQAGGSLRLSCAASGSTFRYAMGWYRQAPGKERELVATISSGGSTNYADSVKGRFTISRDNAKNTVYLQMNSLKPEDTAVYYCAADPYGGDNDKGDYWGQGTQVTVSS	low polyreactivity
QVQLVESGGGLVQAGGSLRLSCAASGSTFDYYTMGWYRQAPGKERELVAAINSSGGRTYYADSVKGRFTISRDNAKNTDYLQMNSLKPEVTAVYYCARTRSVYGYDYWGQGTQVTVSS	high polyreactivity
QVQLVESGGGLLQAGGSLRLSCAASGNTFAYNTMGWYIQAPGKERELVAAILTRGGSTYYADSVKGRFTISRDNAKKTVYLQMNSLNREDTAVYYGAADYRFHGYWSYDYWGQGTQVTVSS	low polyreactivity
QVQLVESGGGLVQAGGSLRLSCAASGSTFYRYTMGWYRQAPGKERELVAAITRSSGSTYYADSVKGRFTISRDNEKNTVYLQMNCLKPEDTAVYYCAAYVGGDRGFDYWGQGTQVTVSS	high polyreactivity
QVQLVESGGGLVQAGGSLRLSCAASGITFIYYAMGWYRQAPGKEREFVAAISSRDDSTYYADSVKGRFTISRDNAKNTVYLQMNSLKPEDTAVYYCAAASSRRSAIKYGYWGQGTQVTVSS	high polyreactivity
QVQLVESVGGLVQAGGSLRLSCAASGFIFYQNAMGWYRQAPGKERELVAAISTTGSRTYYADSVKGRFTISRDNAKNTVYLQMNSLKPEDTAVYYCNAPRRVNYDYWGQGTQVTVSS	high polyreactivity
PLQLVESGGGLVQAGGSLRLSCAASGIIFGRYTMGWYRQAPGKERELFAAITSSGITYYADSVNGRFTISRDNAKNTVYLQLNSLKPEDTAVYYCNADYSIPGYYWPYDYWGLGTQVTVSS	low polyreactivity
QVQLVDSGGGLVQARVNLRLSCRATGIIFYLYVMGWYRQSPGKDRELVAVISYSGDDTYYADSVQVRFTISRDNAKNTVYLQMISLKPEDTAVYYCADDSIGYGVDYWGQGTQVTVSS	low polyreactivity
QVQLVESGGGLVQAGGSLRLSCAASGSIFVDNAMGWYRQAPGKERELVAVITLRSGSTNYADSVKGRFTISRDNAKNTVYLQMNSLKPEDTAVYYCAADETYHDYQRDTDDDYWGQGTQVTVSS	low polyreactivity
QVQLVESGGGLVQAGGSLRLSSAASGRIFAKYAMGWYRQAPGKERELVAAISWGGGSTYYADSVKGRFTISRDNAKNTVYLQMNSLKPEDTAVYYCAARIPKQRDVRGSGMNYWGQGTQVTVSS	high polyreactivity
QVQLVESGGCLVQAQGSLRLSCAASGFTFGYNAMGWYRQAPGKERELVAVISSRGGRTYYADSVKGRFTISRDNAKNTVYLQMYSLKPEDTAVYYCAKRSGSYSYPAVGGWGLGYCGQGTQVTVSS	high polyreactivity
QVQLVESGGGLVQAGGSLRLSCAASGRTFLAIGWYRQAPGKETELVATINGSDGNTYYADSVKGRFTISRDNAENTVYLQMNILKPEDTAVYYCAKRADHTYLPLRPGYPEYNYWRQGTQVTVSS	low polyreactivity
QVQLVESGGGLVQAGGSLRLSCAASGITFTYYVMGWYRQAPGKERELVAAISSGGRTYYADSVKGRFTISRDNAKNTVYLEMNSLKPEDTAVYYCNADQYLRYFGRYYRSGEYWGQGTQVTVSS	high polyreactivity
QVQLVESGGGLVQAGGSLSLSCAASGFTFRWYAMGWYRQAPGKERELVAAISSDDDTSYADSVKGRFTISRDNAKNTVYLQMNSLKPEDTAVYDCAADGYYTLDAYPYGIFWYDYWGQGTQVTVSS	low polyreactivity
QVQLVESGGGLVQAGGSLRLSCAASGIIFGTNAMGWSRQAPGKERELVAAITWSGGTYYADSVKGRFTISRDNAKITVYLQMNSQKPEDTAVYYCNAEWRVYPDLYDYWGQGTQVTVSS	low polyreactivity
